In paper PMC10196373, “Conformational analysis and interaction of the Staphylococcus aureus transmembrane peptidase AgrB with its AgrD propeptide substrate” (Frontiers in Chemistry, 2023):

T1: AgrB1 with C-terminal SmBiT (agrBCS) (Staphylococcus aureus, UniProt P0C1P7 1-189)
T1 construct: AgrB1, transmembrane peptidase of S. aureus agr group 1; agrB1 gene amplified with its upstream P2 promoter; A 16 amino acid flexible linker joins AgrB and SmBiT; also called AgrB-SmBiT; pSK-P2-agrBCS; source: S. aureus SH1000, from the agr P2 promoter, chromosomal (attB2) or on low copy plasmid pSK5630, in live cells; not shown: SmBiT (NanoBiT), C-terminal, kept
T1 sequence: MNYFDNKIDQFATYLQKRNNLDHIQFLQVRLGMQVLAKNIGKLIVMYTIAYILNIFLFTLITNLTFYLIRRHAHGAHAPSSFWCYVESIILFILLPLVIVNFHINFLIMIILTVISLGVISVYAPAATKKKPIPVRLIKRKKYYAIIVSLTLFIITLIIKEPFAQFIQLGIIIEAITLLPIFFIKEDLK

B1: AgrD1 with C-terminal LgBiT (agrDCL) (peptide)
chain: MNTLFNLFFDFITGILKNIGNIAAYSTCDFIMDEVEVPKELTQLHE
notes: AgrD1 pro-peptide of S. aureus agr group 1; PCR-amplified agrD1 put in place of agrB1 in the split luciferase plasmid; A 16 amino acid flexible linker joins AgrD and LgBiT; also called pAgrDCL; AgrD-LgBit; source: S. aureus SH1000, from the agr P2 promoter on low copy plasmid pSK5630, in live cells; not shown: LgBiT (NanoBiT), C-terminal, kept
B2: T7-AgrD1, AIP pro-peptide AgrD1 with a 14 residue T7 epitope leader tag (peptide)
peptide: B1 chain
notes: AgrD1 pro-peptide of S. aureus agr group 1; also called AgrD-T7; T7-tagged AgrD; source: synthetic peptide (solid phase synthesis), bought: CS Bio

Assays:
[1] = target: T1, AgrB1 with C-terminal SmBiT (agrBCS); assay: split reporter (BiFC, NanoBiT); live S. aureus SH1000 cells; one tagged fusion on the chromosome (attB2), the other on a low copy plasmid, both from the agr P2 promoter; cells at OD600 1.0, Nano-Glo live cell reagent (furimazine), bioluminescence (RLU); conditions: partners not purified
[2] = target: the molecule itself; assay: new band of the complex on Tris-glycine gel, Western blot; purified AgrB with DOPG (1 mg/mL) incubated with T7-AgrD1 (2 uM) 30 min at 37 C in 20 mM Tris-HCl pH 7.5, 5 mM MgSO4; heated to 55 C for 5 min in SDS sample buffer, 14% Tris-glycine gel without SDS; blots probed with an AgrB nanobody or an anti-T7 antibody

| Binder | luminescent signal relative to the other constructs [1] [times] | binding result [2] |
| --- | --- | --- |
| B1 | > 10 | – |
| B2 | – | binds |
